Blank lines part the entries; values can stand above or below the binder they belong to.
Key:
[1] = target: mouse PD-L1 in wild-type parental MC38 cells (mouse (endogenous in MC38), UniProt Q9EP73 19-290); assay: flow cytometry on cells
[2] = target: sPD-1 V1 Fc (human) (UniProt Q15116); assay: SPR

Sequence of mouse PD-L1 in wild-type parental MC38 cells (Q9EP73 19-290): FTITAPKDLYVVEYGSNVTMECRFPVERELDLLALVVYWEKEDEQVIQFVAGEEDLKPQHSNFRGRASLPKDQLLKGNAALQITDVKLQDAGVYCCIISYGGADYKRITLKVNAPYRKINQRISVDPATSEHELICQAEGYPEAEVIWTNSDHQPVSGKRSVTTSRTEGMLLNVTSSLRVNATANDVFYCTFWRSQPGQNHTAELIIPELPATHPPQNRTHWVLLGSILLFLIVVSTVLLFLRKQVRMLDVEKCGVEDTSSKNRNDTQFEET

- fold increase in binding signal over wild-type sPD-1 [1]: ~4 fold
B1: sPD-1 V2 Fc (Fc fusion)
chain: LDSPDRPWNPPTFSPALLVVTEGDNATFTCSFSNTSEGFVLNWYRMSPSNQTDKLAAFPEDRGQLGQDCRFRVTQLPNGRDFHMSVVRARRNDSGTYLCSAIVLAPKIQIKESLRVELRVTERRAEVPTAHPSPSPRPAGQFQTLV

- fold improvement in binding affinity over wild type sPD-1 [2]: 200 fold
B2: human PD-L2 (#10292-H08H, SinoBiological) (ligand)
chain: LFTVTVPKELYIIEHGSNVTLECNFDTGSHVNLGAITASLQKVENDTSPHRERATLLEEQLPLGKASFHIPQVQVRDEGQYQCIIIYGVAWDYKYLTLKVKASYRKINTHILKVPETDEVELTCQATGYPLAEVSWPNVSVPANTSHSRTPEGLYQVTSVLRLKPPPGRNFSCVFWNTHVRELTLASIDLQSQMEPRTHPT
